Reference: the supplement of paper PMC7877785
± gives the uncertainty stated by the source.

Assay: self-splicing fitness, log relative to wild type (ln ratio); higher = more splicing; Tetrahymena group I intron in knt gene, E. coli kanamycin selection, DiMSum; sequences stand for … in CUCUCU…GGAGGGAAAAGUUAUCAGGCAUGCACCUGGUAGCUAGUCUUUAAACCAAUAGAUUGCAUCGGUUUAAAAGGCAAGACCGUCAAAUUGCGGGAAAGGGGUCAACAGCCGUUCAGUACCAAGUCUCAGGGGAAACUUUGAGAUGGCCUUGCAAAGGGUAUGGUAAUAAGCUGACGGACAUGGUCCUAACCACGCAGCCAAGUCCUAAGUCAACAGAUCUUCUGUUGAUAUGGAUGCAGUUCACAGACUAAAUGUCGGUCGGGGAAGAUGUAUUCUUCUCAUAAGAUAUAGUCGGACCUCUCCUUAAUGGGAGCUAGCGGAUGAAGUGAUGCAACACUGGAGCCGCUGGGAACUAAUUUGUAUGCGAAAGUAUAUUGAUUAGUUUUGGAGUACUCGUGGUCG
Method in brief: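 Colonies from six replicate transformations of E. coli BL21(DE3) were pooled and amplicon-sequenced on an Illumina HiSeq 2500. The library placed an intron with all eight P1ex-region nucleotides randomised inside the knt kanamycin-resistance gene on pET-22b(+), and cells grew overnight at 37°C or 30°C on LB agar with or without 25 μg/mL kanamycin (plus 100 μg/mL carbenicillin, 50 μM IPTG, 0.2% rhamnose). Fitness is the DiMSum error-weighted combination of wild-type-normalised replicate fold changes, kanamycin versus none.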

Sequence	self-splicing fitness (ln) (30 °C)	self-splicing fitness (ln) (37 °C)
GACUAGCAAUAUUACGAAAG	-2.97 ± 0.16	-1.8 ± 0.2
GACUAGCAAUAUUACGAACG	-1.34 ± 0.11	-0.144 ± 0.15
GACUAGCAAUAUUACGAACU	0.186 ± 0.15	1.04 ± 0.22
GACUAGCAAUAUUACGAAGC	-2.18 ± 0.18	-1.55 ± 0.18
GACUAGCAAUAUUACGAAUC	-2.28 ± 0.32	-1.83 ± 0.28
GACUAGCAAUAUUACGACAU	-0.511 ± 0.012	-0.122 ± 0.032
GACUAGCAAUAUUACGAGCU	-1.61 ± 0.13	-0.918 ± 0.093
GACUAGCAAUAUUACGAGGC	–	-2.23 ± 0.3
GACUAGCAAUAUUACGAUAC	-1.31 ± 0.07	-0.489 ± 0.092
GACUAGCAAUAUUACGAUCG	-1.24 ± 0.13	-0.31 ± 0.21
GACUAGCAAUAUUACGAUCU	-0.896 ± 0.087	-1.38 ± 0.096
GACUAGCAAUAUUACGAUGA	-0.535 ± 0.1	-1.08 ± 0.08
GACUAGCAAUAUUACGCCAU	-2.02 ± 0.12	-1.32 ± 0.14
GACUAGCAAUAUUACGCCGC	-3.31 ± 0.21	-1.65 ± 0.2
GACUAGCAAUAUUACGCGAU	-2.8 ± 0.21	-2.42 ± 0.3
GACUAGCAAUAUUACGCGCA	-0.593 ± 0.16	-0.286 ± 0.18
GACUAGCAAUAUUACGGAUA	-1.4 ± 0.09	-0.349 ± 0.09
GACUAGCAAUAUUACGGCAU	-0.26 ± 0.059	0.291 ± 0.081
GACUAGCAAUAUUACGGCGA	-0.738 ± 0.079	-0.303 ± 0.081

Sequence	self-splicing fitness (ln) (30 °C)	self-splicing fitness (ln) (37 °C)
GACUAGCAAUAUUACGGGCG	-0.65 ± 0.061	-0.282 ± 0.071
GACUAGCAAUAUUACGUAAA	-0.826 ± 0.097	0.0101 ± 0.12
GACUAGCAAUAUUACGUAUC	-2.74 ± 0.11	-1.98 ± 0.12
GACUAGCAAUAUUACGUCGC	-3.63 ± 0.18	-1.94 ± 0.16
GACUAGCAAUAUUACGUGAC	-1.34 ± 0.085	-1.39 ± 0.12
GACUAGCAAUAUUACGUGCU	-3.61 ± 0.16	-1.9 ± 0.12
GAGAAGCAAUAUUACGAAAG	-4.36 ± 0.32	-1.5 ± 0.2
GAGAAGCAAUAUUACGACAU	-0.36 ± 0.013	-0.137 ± 0.033
GAGAAGCAAUAUUACGACGU	-0.944 ± 0.22	0.108 ± 0.19
GAGAAGCAAUAUUACGAGCU	-0.838 ± 0.12	-0.347 ± 0.11
GAGAAGCAAUAUUACGAUCA	-1.06 ± 0.15	-0.469 ± 0.16
GAGAAGCAAUAUUACGAUCG	-0.334 ± 0.094	-0.068 ± 0.14
GAGAAGCAAUAUUACGAUGC	-1.06 ± 0.15	-0.435 ± 0.21
GAGAAGCAAUAUUACGCGUA	-1.03 ± 0.12	-1.1 ± 0.13
GAGAAGCAAUAUUACGCUAU	-2.79 ± 0.19	-1.31 ± 0.16
GAGAAGCAAUAUUACGCUUC	-2.79 ± 0.26	-2.89 ± 0.38
GAGAAGCAAUAUUACGGAAC	-2.78 ± 0.19	-0.25 ± 0.16
GAGAAGCAAUAUUACGGAUA	-2.16 ± 0.2	-0.942 ± 0.21
